No end group written: not given here.

Assay [1] has as its target T1, recombinant soluble P-selectin (Homo sapiens (Human), UniProt P16109). In words: ELISA on plates coated with rsP-selectin, COS cell supernatants. On the procedure: Media from the transfected COS cells were assayed by ELISA to quantify levels of human antibody produced and analyze capacity to bind to recombinant soluble P-selectin (rsP-selectin). Immulon microtiter plates ([…], #011-010-3355) were coated with 100 μl/well of a solution of goat anti-human IgG (whole molecule, SIGMA #I-1886) to a final concentration of 12.5 μg/ml or a solution of rsP-selectin (1.2 mg/ml) diluted in Dulbecco's phosphate buffered saline (DPBS). Plates were coated overnight at 4° C. or for 2 h at 37° C. The plates were then washed three times with DPBS. The plates were then blocked with 400 μl/well of DPBS+1% bovine serum albumin (BSA, SIGMA, #A-7888) for one h or longer at room temperature. The plates were then washed three times with DPBS.
Serial dilutions of the monoclonal antibodies in DPBS+ 1% BSA were added to the plates (100 μl/well), and the plates were incubated for 1 h at room temperature. The plates were then washed three times with DPBS. 100 μl/well of a second antibody (goat anti-human IgG peroxidase conjugate, SIGMA #A-8867) diluted 1 to 1000 in DPBS+ 1% BSA was added to the plates, and the plates were incubated for one h at room temperature. The plates were then washed three times with DPBS. […] The plates were read at 450 nm in a […] […]

Assay [2] deals with T1, recombinant soluble P-selectin. The assay can be described thus: competitive ELISA on rsP-selectin; reference unlabelled PB1.3. Here is the method: (§1) A 96-well plate (MICROTEST III, FALCON #3912) was coated with 50 μl/well of rsP-selectin (diluted to 2 μg/ml in DPBS) overnight at 4° C. or 90 min at 37° C. The plate was inverted and residual fluid was tapped away.
(§2) The coated plate and an additional blank plate were blocked with 200 µl/well of DPBS+1% bovine serum albumin (BSA, SIGMA #A-7888), for 1 h at room temperature. The blank plate was inverted and the residual blocking fluid was tapped away. The rsP-selectin coated plate was allow to continue blocking during the antibody dilution period. Serially diluted sample antibodies (in DPBS+1% BSA) were added to the blank plate at 50 µl/well. The initial concentrations of the antibodies were 100 µg/ml. Biotinylated-PB1.3 (diluted to 0.3 µg/ml in DPBS+1% BSA) was added to the sample antibodies in the blank plate, 50 µl/well, and mixed by pipetting up and down. The rsP-selectin coated plate was washed three times with DPBS. The sample antibody/biotinylated -PB1.3 mixture was pipetted into the plate coated with rsP-selectin, 50 µl/well, and allowed to incubate for one h at room temperature. The plate was then washed three times with DPBS.
(§3) Streptavidin horse radish peroxidase conjugate (PIERCE #21124) diluted 1:2000 in DPBS+1% BSA was added to the plate, 50 µl/well and allowed to incubate for 1 h at room temperature. The plate was then washed three times with DPBS.
Background: ELISA stands for enzyme-linked immunosorbent assay.

The target is the same in assay [3]. In words: competitive ELISA on rsP-selectin; competitor biotinylated PB1.3. Here is the method: as §1, §2, §3
The target of assay [4] is P-selectin Δ5CRP (human, UniProt P16109). In words: direct ELISA of COS cell supernatants.
Assay [5] deals with T1, recombinant soluble P-selectin. In words: competitive ELISA on rsP-selectin; unlabelled PB1.3 against biotinylated PB1.3. On the procedure: as §1, §2, §3
Assay [6] concerns the target T2, peptide CQNRYTDLVAIQNKNE
T2 peptide: CQNRYTDLVAIQNKNE-NH2
In words: indirect: soluble peptide as competitor in ELISA of PB1.3 on affinity purified P-selectin. Here is the method:
III. […] Dilutions of mu MAb PB1.3 in DPBS+1% BSA were mixed with either 0.35 mg/ml CQNRYT-[…] (SEQ ID No: 1) in PBS, or as a control, PBS alone. After 1 hr, 50 μl of each antibody dilution was added to the microtiter plate, and incubated for 1 hr. The plate was washed with DPBS, and a 1 to 1000 dilution of sheep anti-mouse IgG horseradish peroxidase conjugate in DPBS+ 1% BSA was added. After 1 hr, the plate was washed, the substrate TMB was added, and the color development was stopped and the plates read as above.

B1: reshaped MAb PB1.3, heavy chain CY1748RHA with light chain CY1748RLB (antibody, V domains shown)
VH: EAQLVQSGAEVKKPGASVKVSCKASGYTFTNYVMHWVRQAPGQRLEWMGFINPSNDGPKYNERFKNRVTITSDTSASTAYMELSSLRSEDTAVYYCARARPGFDWYFDVWGQGTLVTVSS
VL: DIQMTQSPSTLSASVGDRVTVTCKASQNVATNVVWYQQKPGEAPKALIYTASYRFSGVPSRFSGSGSGTDFTLTISSLQSDDFATYYCQQYNNYPYTFGQGTKLEIK
For B1, in assay [1], the binding result is reported as “binds”.

B2: reshaped MAb PB1.3, heavy chain CY1748RHA with light chain CY1748RLC (antibody, V domains shown)
VH: EAQLVQSGAEVKKPGASVKVSCKASGYTFTNYVMHWVRQAPGQRLEWMGFINPSNDGPKYNERFKNRVTITSDTSASTAYMELSSLRSEDTAVYYCARARPGFDWYFDVWGQGTLVTVSS
VL: DIQMTQSPSTLSASVGDRVTVTCKASQNVATNVVWYQQKPGEAPKALIYTASYRFSGVPERFSGSGSGTEFTLTISSLQSDDFATYYCQQYNNYPYTFGQGTKLEIK
Turning to B2, in assay [1], the binding result is “binds”.

B3: reshaped MAb PB1.3 (HB/LD), IgG4 isotype (antibody, V domains shown)
VH: QVQLVQSGAEVKKPGASVKVSCKASGYTFTNYVMHWVRQAPGQRLEWMGFINPSNDGPKYNERFKNRVTITSDTSASTAYMELSSLRSEDTAVYYCARARPGFDWYFDVWGQGTLVTVSS
VL: DIQMTQSPSTLSASVGDRVTVTCKASQNVATNVVWYQQKPGEAPKALIYTASYRFSGVPSRFSGSGSGTEFTLTISSLQSDDFATYYCQQYNNYPYTFGQGTKLEIK
On to B3, for which the “binding relative to PB1.3” value in assay [2] was determined as 50%.

B4: reshaped MAb PB1.3 (HA/LA), IgG1 isotype (antibody, V domains shown)
VH: EAQLVQSGAEVKKPGASVKVSCKASGYTFTNYVMHWVRQAPGQRLEWMGFINPSNDGPKYNERFKNRVTITSDTSASTAYMELSSLRSEDTAVYYCARARPGFDWYFDVWGQGTLVTVSS
VL: DIQMTQSPSTLSASVGDRVTVTCKASQNVATNVVWYQQKPGEAPKALIYTASYRFSGVPERFSGSGSGTDFTLTISSLQSDDFATYYCQQYNNYPYTFGQGTKLEIK
By IC50 is commonly meant the point on the concentration scale where inhibition reaches its midpoint. Turning to B4, the IC50 in assay [3] amounted to 2 µg/mL. In addition, the “binding relative to PB1.3” value in assay [2] was found to be 50%.

B5: mu MAb PB1.3 (antibody, V domains shown)
VH: EAQLQQSGPELVEPGASVKVSCKASGYTFTNYVMHWVKQKPGQGLEWIGFINPSNDGPKYNERFKNKATLTSDKSSSTAYMELSSLTSEVSAVYFCARARPGFDWYFDVWGAGTTVTVSS
VL: DIVMTQSQKFMSTSVGDRVSVTCKASQNVATNVVWYQQRPGQSPKALIYTASYRFSGVPERFSGSGSGTDFTLTITNVQSEDLADYFCQQYNNYPYTFGGGTKVEIQ
On to B5, for which the binding result is listed as “no binding” in assay [4] and “no binding (tested: 0.35 mg/ml)” in assay [6]. In addition, in assay [5], the IC50 is 1 µg/mL.

These data come from patent US5800815, “Antibodies to P-selectin and their uses” (Cytel Corporation, dated 1998).
